Earlier results on one substance are cited in publication PMC4799752.

This data set has as its target transferrin receptor 2 (Homo sapiens) (UniProt Q9UP52).
Sequence of UniProt Q9UP52 (Q9UP52 whole entry): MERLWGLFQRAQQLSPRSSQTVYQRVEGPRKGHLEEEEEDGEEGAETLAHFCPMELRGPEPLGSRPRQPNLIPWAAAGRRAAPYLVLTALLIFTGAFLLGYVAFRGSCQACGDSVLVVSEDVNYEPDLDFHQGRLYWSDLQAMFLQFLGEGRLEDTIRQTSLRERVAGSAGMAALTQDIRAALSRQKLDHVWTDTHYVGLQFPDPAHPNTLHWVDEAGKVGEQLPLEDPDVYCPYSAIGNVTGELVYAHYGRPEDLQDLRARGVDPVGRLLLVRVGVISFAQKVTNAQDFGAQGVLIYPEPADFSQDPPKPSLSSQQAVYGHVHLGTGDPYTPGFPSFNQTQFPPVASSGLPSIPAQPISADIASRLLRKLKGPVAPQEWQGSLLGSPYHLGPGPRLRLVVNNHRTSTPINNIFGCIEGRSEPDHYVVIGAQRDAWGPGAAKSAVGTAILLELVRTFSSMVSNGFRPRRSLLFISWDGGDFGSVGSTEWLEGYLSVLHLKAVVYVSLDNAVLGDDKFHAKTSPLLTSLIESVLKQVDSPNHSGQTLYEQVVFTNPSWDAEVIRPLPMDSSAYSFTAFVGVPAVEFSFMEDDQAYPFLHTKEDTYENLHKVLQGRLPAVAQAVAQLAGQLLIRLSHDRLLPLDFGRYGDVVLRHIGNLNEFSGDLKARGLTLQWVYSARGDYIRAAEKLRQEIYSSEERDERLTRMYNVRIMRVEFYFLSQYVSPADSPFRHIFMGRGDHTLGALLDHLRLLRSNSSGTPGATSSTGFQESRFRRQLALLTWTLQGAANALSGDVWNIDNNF

Sequence of transferrin (P02787 20-698): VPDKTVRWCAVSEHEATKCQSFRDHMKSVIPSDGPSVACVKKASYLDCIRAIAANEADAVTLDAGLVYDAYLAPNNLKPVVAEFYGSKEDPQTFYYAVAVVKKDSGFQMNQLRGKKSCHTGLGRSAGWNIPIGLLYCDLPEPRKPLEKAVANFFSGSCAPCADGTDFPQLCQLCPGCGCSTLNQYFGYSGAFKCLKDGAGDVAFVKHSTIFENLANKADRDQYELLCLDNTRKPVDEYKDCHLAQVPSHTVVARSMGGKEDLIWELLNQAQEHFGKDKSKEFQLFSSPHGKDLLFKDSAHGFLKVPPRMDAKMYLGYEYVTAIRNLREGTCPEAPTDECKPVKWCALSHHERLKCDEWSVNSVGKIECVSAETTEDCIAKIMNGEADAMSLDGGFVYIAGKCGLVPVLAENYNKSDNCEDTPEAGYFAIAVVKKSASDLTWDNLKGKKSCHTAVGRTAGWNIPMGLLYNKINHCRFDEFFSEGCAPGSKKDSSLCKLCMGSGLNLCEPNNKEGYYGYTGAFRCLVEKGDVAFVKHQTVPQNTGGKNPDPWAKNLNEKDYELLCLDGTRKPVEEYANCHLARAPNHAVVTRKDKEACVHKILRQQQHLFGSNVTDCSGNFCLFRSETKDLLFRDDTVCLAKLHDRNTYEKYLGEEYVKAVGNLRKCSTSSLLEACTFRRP

transferrin (from UniProt P02787): the Kd was 30 nM.

As a reminder, the Kd is the free concentration of one partner at which half of the binding sites on the other are occupied at equilibrium, for simple one-to-one binding.
